The results in this text go back to patent US20070022485, “Method of preparing transgenic organism with use of methylation and system therefor” (Japan Science Techonology Agency, published 2007).

The subject of series [1] is Tc3 transposase (pRP2302) (Caenorhabditis elegans). As to the kind of experiment: cell_activity. The note with it: 5mC at CpG; gene trap events in mouse ES cells.
Series [2] concerns the target T1, SB transposase N123 (N-terminal 123 aa DNA-binding domain) (Sleeping Beauty (synthetic, …)).
T1 chain: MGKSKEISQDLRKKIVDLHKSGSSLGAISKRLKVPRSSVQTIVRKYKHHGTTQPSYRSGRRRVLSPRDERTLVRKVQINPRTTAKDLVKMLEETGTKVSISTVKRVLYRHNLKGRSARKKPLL
As to the kind of experiment: EMSA; poly(dI-dC) 1 ug, 25 C, 30 min. The note with it: tags: C-terminal His6 (pET21d, E. coli); label: 32P 5'. Here is the method: (§1) This oligonucleotide was first labeled with [γ-³²P]ATP using T4 polynucleotide kinase, and then annealed. DNA fragment of IR/DR-L was digested with HindIII and KpnI for the preparation, and thereafter, the fragment was methylated using SssI methylase or kept unmethylated and then the fragment was treated with an alkaline phosphatase. The digested fragment was extracted using phenol-chloroform, and precipitated with ethanol, and then finally, T4 polynucleotide was used to label with [γ-³²P]ATP. In the presence of poly(dI-dC) (1.0 μg), 0.2 pmol of oligonucleotide probe or 100 pg of IR/DR-L fragment, and 1.0 μl of N123, a nucleoprotein complex was formed in a buffer described previously in Ivics, Z., P. B. Hackett, R. H. Plasterk, and Z. Izsvak. 1997; Cell 91:501-510). After a thirty minute incubation at 25 degrees Celsius, samples were loaded on a 5%-native polyacrylamide gel, and electrophoresed at 150V constant voltage, and in 0.5× Tris-borate-EDTA, 1.5 hours for oligonucleotide probe and 2.5 hours for IR/DR-L fragment. After the gel was dried, the nucleoprotein was visualized by autoradiography.
(§2) In order to clarify the mechanism of transposition which has been enhanced by methylation of CpG, the present inventors have compared the affinity of recombinant SB transposase peptide against the methylated IR/DR and unmethylated IR/DR by EMSA. […]
For orientation: A gel shift assay detects complexes by their altered migration in electrophoresis.

In series [3] the target is T1, SB transposase N123 (N-terminal 123 aa …). The experiment in a line: EMSA; shift and competition comparable to unmethylated site; poly(dI-dC) 1 ug, 25 C. The note with it: tags: C-terminal His6 (pET21d, E. coli); label: 32P 5'. The procedure:
as §1, §2

Consider “Tc3 transposon vector pTc3/SAβ-geo, CpG methylated”, for which, in series [1], the binding signal (fold vs unmethylated) stood at 2.

B1: IR/DR-L outer binding site, unmethylated 34 bp (dsDNA)
DNA 1: TACAGTTGAAGTCGGAAGTTTACATACACTTAAG
DNA 2: CTTAAGTGTATGTAAACTTCCGACTTCAACTGTA
As to B1, the binding result in series [2] is recorded as “binds”.

B2: IR/DR-L outer binding site, methylated 34 bp (dsDNA)
DNA 1: B1 DNA 1
DNA 2: B1 DNA 2
modifications: 5mC at the CpG on both strands (n in SEQ:64 and SEQ:65)
Turning to B2, in series [3], the binding result is “binds”.
